Results as given in patent publication US20240218070A1 (MERUS N V, published 2024).

What was measured:
[1] = target: T1, human TGF-βRII expressed on cells (human, UniProt P37173 23-567); assay: cell-based or functional assay
[2] = target: T1, human TGF-βRII expressed on cells; assay: cell-based or functional assay; remark: listed apart in the source

T1 sequence (P37173 23-567 limits assumed, form in doubt): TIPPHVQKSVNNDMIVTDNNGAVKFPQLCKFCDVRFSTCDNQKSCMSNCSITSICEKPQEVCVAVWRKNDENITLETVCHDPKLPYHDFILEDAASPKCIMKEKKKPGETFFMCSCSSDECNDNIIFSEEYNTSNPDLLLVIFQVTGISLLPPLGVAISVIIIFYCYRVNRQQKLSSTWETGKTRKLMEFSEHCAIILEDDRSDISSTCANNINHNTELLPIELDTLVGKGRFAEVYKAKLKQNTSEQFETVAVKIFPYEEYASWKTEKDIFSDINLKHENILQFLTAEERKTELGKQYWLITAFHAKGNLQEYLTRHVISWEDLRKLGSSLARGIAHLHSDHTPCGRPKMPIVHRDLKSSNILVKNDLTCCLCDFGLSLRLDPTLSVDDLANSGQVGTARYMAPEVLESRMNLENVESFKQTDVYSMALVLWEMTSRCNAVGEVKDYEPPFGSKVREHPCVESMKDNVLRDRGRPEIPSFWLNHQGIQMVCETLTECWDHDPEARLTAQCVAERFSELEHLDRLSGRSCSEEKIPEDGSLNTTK

B1: Analog reference TGF-βRII antibody TGF1 (antibody, human IgG1, kappa, V domains shown)
VH: QLQVQESGPGLVKPSETLSLTCTVSGGSISNSYFSWGWIRQPPGKGLEWIGSFYYGEKTYYNPSLKSRATISIDTSKSQFSLKLSSVTAADTAVYYCPRGPTMIRGVIDSWGQGTLVTVSS
VL: EIVLTQSPATLSLSPGERATLSCRASQSVRSYLAWYQQKPGQAPRLLIYDASNRATGIPARFSGSGSGTDFTLTISSLEPEDFAVYYCQQRSNWPPTFGQGTKVEIKR
IL-11 IC50, TGF-β1-stimulated primary colon CAFs [1]: 0.0526 µg/mL | pSMAD2 IC50, TGF-β1-stimulated primary colon CAFs [1]: 0.00929 ug/ml | Primary CAF IL-11 IC50, BLDA [2]: 1.04 µg/mL | Primary CAF IL-11 IC50, COAD(1) [2]: 1.22 µg/mL | Primary CAF IL-11 IC50, COAD(2) [2]: 0.313 µg/mL | Primary CAF IL-11 IC50, GBM [2]: 0.264 µg/mL | Primary CAF IL-11 IC50, HNSC [2]: 20.2 µg/mL | Primary CAF IL-11 IC50, LUAD [2]: 0.765 µg/mL | Primary CAF IL-11 IC50, LUSC [2]: 0.085 µg/mL | Primary CAF IL-11 IC50, MEL [2]: 0.588 µg/mL | Primary CAF IL-11 IC50, OV [2]: 0.191 µg/mL | Primary CAF IL-11 IC50, PAAD [2]: 0.38 µg/mL | Primary CAF pSMAD IC50, BLDA [2]: 0.087 ug/ml | Primary CAF pSMAD IC50, COAD(1) [2]: 0.081 ug/ml | Primary CAF pSMAD IC50, COAD(2) [2]: 0.023 ug/ml | Primary CAF pSMAD IC50, GBM [2]: 0.048 ug/ml | Primary CAF pSMAD IC50, HNSC [2]: 0.714 ug/ml | Primary CAF pSMAD IC50, LUAD [2]: 0.078 ug/ml | Primary CAF pSMAD IC50, LUSC [2]: 0.125 ug/ml | Primary CAF pSMAD IC50, MEL [2]: 0.117 ug/ml | Primary CAF pSMAD IC50, OV [2]: 0.188 ug/ml | Primary CAF pSMAD IC50, PAAD [2]: 0.126 ug/ml
